Source: article PMC11062541
Read-outs that look alike come from different tables or passages of the source.

Experiments:
Assay in all cases: EMSA
[1] = tested on: T1, AbiEi (Streptococcus suis serotype 5 strain HN105), ORF:22a13f51
T1 sequence: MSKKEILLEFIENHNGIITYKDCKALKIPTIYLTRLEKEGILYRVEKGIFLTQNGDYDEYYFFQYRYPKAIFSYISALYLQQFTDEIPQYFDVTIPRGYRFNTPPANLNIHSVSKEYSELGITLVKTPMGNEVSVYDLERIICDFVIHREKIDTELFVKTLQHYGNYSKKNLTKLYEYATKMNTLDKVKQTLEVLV

[2] = tested on: T2, SezA (Streptococcus suis serotype 5 strain HN105), ORF:21ec5bb3
T2 sequence: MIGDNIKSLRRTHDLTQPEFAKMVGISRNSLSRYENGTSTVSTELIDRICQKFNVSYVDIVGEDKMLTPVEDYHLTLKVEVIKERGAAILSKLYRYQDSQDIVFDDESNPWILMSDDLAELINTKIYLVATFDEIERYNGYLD

[3] = tested on: T3, AbiEiDel-AHTH internal_change (Streptococcus suis serotype 5 strain HN105), ORF:22a13f51
T3 sequence: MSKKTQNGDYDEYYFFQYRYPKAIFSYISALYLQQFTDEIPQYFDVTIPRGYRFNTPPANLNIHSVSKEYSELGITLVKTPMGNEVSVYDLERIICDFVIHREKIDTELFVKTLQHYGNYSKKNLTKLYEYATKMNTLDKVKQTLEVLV

[4] = tested on: SezA (Streptococcus suis serotype 5 strain HN105)
[5] = tested on: AbiEi (Streptococcus suis serotype 5 strain HN105)

ACTTACTCCTTCCTTTTACAATATTTGTAGTGCAAAAGCAACATTTTCTTTTACATTAATGTATTGTGATAACAAAATCAAGCCTTCTTTTTTATGATGAGAAAAGAGTGACAGTTTGTTGCTACAGAAAAAAGAAAAGAAGGACTATTTATGACCAAAACATGTAATCATCACTTTCT (double strand) [PAbiE-ΔIR1]
binding ([1]; IR1 deleted): binds

AGAAAGTGATGATTACATGTTTTGGTCATAAATAGTCCTTCTTTTCTTTTTTCTGTAGCAACAAACTGTCACTCTTTTCTCATCATAAAAAAGAAGGCTTGATTTTGTTATCACAATACATTAATGTAAAAGAAAATGTTGCTTTTGCACTACAAATATTGTAAAATTGTAGTATAAAAGCAACATTGGAAGGAGTAAGT (double strand) [AbiE promoter]
binding [2]: no binding | binding [1]: binds | binding [3]: no binding

AGAAAGTGATGATTACATGTTTTGGTCATAAATAGTCCTTCTTTTCTTTTTTCTGTAGCAACAAACTGTCACTCTTTTCTCATCATAAAAAAGAAGGCTTGATTTTGTTATCACAATACATTAATGTAAAAGAAATATTGTAAAAGGAAGGAGTAAGT (double strand) [PAbiE-ΔIR1/2]
binding ([1]; IR1 and IR2 deleted): no binding

AGAAAGTGATGATTACATGTTTTGGTCATAAATAGTCCTTCTTTTCTTTTTTCTGTAGCAACAAACTGTCACTCTTTTCTCATCATAAAAAAGAAGGCTTGATTTTGTTATCACAATACATTAATGTAAAAGAAATATTGTAAAATTGTAGTATAAAAGCAACATTGGAAGGAGTAAGT (double strand) [PAbiE-ΔIR2]
binding ([1]; IR2 deleted): binds

AGATAAAGACCTCCTCATATTTGCTTTCATTATACCATATATTAGGTTTCTTCGATTGCTTAAACTCCTCTATTCGCTTCTCCAACTGCTCAGTATTCAGTTTATTTTTCGCTTCTTGGATTGACTTATCAAGAATTTGTTCCTCATCGGTTATAATGTCCC (double strand) [PSezAT-ΔIR1/2]
binding ([2]; IR1 and IR2 deleted): no binding

AGTACAGGACTGGATTCAATTTTATGCCAAAATTCCTGCCAAACTTCAAATTTATGAACTCAAACCCCTTGATACTGCACATTTAACAGGTTGTGCAATTGTTACTCTTAAATAATAGAGTTTCCAATCAAAATAAAAACCTATCACCTAATGTGGTAGGTTTTTTTTGTTCTATTGTTGCAAACGTTTTCGTTGTGGGGTATAATATAAAAAAT (double strand) [L sequence (attL)]
Kd [2]: 1.96 µM

AGTACAGGACTGGATTCAATTTTATGCCAAAATTCCTGCCAAACTTCAAATTTATGAACTCAAACCCCTTGATACTGCACATTTAACAGGTTGTGCAATTTAGAGTTTCCAATCAAAATAAAAACCTATCACCTAATGTGGTAGGTTTTTTTTGTTCTATTGTTGCAAACGTTTTCGTTGTGGGGTATAATATAAAAAAT (double strand) [L-ΔattL]
binding ([2]; attL deleted): no binding

CCTACTATCCTTTCAACATGATATTTGTCTGACAATGTAAGGCTGCCTCACATTGTCAGTACGCTTCCTAAAGACTTCACTCTCTCCTTGTTCGGTCTTTGCGAGCTCAGATATTGTGTCCACAATATCCCCAGTAGAAAATCAACACTTGATTTTTTTAGGAATGATATTAGGATAATAGAGGTGATTTGGAAAAGGTATCACAAAACAAAAAGTAGGATATTTCTAACCTACTTTTCATTTCCTTATA (double strand) [T sequence (oriT)]
Kd [1]: 0.153 µM | binding [3]: no binding

GGGACATTATAACCGATGAGGAACAAATTCTTGATAAGTCAATCCAAGAAGCGAAAAATAAACTGAATACTGAGCAGTTGGAGAAGCGAATAGAGGAGTTTAAGCAATCGAAGAAACCTAAAAACGGATAATGCACCAAATATGGTGCGTTATCCGTTTTTTATGGTATAATGAAAGCAAATATGAGGAGGTCTTTATCT (double strand) [SezAT promoter]
binding [2]: binds | binding [1]: binds

L sequence (attL)
Kd [4]: 1.96 µM

T sequence (oriT)
Kd [5]: 0.153 µM

TATAAGGAAATGAAAAGTAGGTTAGAAATATCCTACTTTTTGTTTTGTGATACCTTTTCCAAATCACCTCTATTATCCTAATATCATTCCTAAAAAAATCAAGTGTTGATTTTCTACTGCGAACAAGGAGAGAGTGAAGTCTTTAGGAAGCGTACTGACAATGTGAGGCAGCCTTACATTGTCAGACAAATATCATGTTGAAAGGATAGTAGG (double strand) [T-ΔoriT]
binding ([1]; oriT deleted): no binding
